Experiment [1] has as its target secreted E2 ectodomain (sE2), HCV E2 residues 384-661 (Hepatitis C virus, isolate H77C) (UniProt P27958). Nature of the experiment: SPR (Biacore T200); sE2 amine-coupled to a CM5 chip, CD81-LEL injected; 1:1 model, Kd = koff/kon. On the technique in general: SPR reads the build-up and loss of mass on a sensor chip optically.
For experiment [2] the target is unchanged. Nature of the experiment: SPR (Biacore T200); sE2 amine-coupled to a CM5 chip, CD81-LEL injected; 1:1 model.

B1: CD81 large extracellular loop (CD81-LEL) (receptor, UniProt P60033 113-201, looked up, not shown: small tags and cut ends)
chain: FVNKDQIAKDVKQFYDQALQQAVVDDDANNAKAVVKTFHETLDCCGSSTLTALTTSVLKNNLCPSGSNIISNLFKEDCHQKIDDLFSGK
Usually Kd stands for a measure of binding affinity in units of concentration. As usually defined, the koff is the first-order rate constant of dissociation. For orientation: kon means the second-order rate constant of association. A lower kon goes with slow association. Molecule B1 showed a dissociation constant Kd in experiment [1] of 7 nM. In experiment [2], this molecule gave a dissociation rate constant (koff) of 0.00045 s⁻¹ and a kon of 65000 M⁻¹ s⁻¹.

(Values after patent publication US20240016923A1.)
